Results taken from patent US20240262893A1.

Biological target: SARS-CoV-2 (Wuhan-Hu-1) wild-type (WT) spike protein carried on pseudotyped virus or on live wild-type virus (SARS-CoV-2 (Wuhan-Hu-1)), P0DTC2
Test: cell-based or functional assay

B1: R2D9 CDR3-knob (peptide)
peptide: ITHKTCPNGYNWFDRCCSWDGTCGDGCCSNRAWPSGNGRADSSIGETYGYEF
modifications: not checked
Binder B1 has a pseudovirus neutralization, ng/mL (quantity not given) of 24.2 ng/mL.
